Values quoted from earlier work as cited in paper PMC6844576.

Molecular target: IL-6 receptor (Homo sapiens) (UniProt P08887)
Test: 125I-rhIL-6 radioligand binding

Sequence of UniProt P08887 (P08887 20-365): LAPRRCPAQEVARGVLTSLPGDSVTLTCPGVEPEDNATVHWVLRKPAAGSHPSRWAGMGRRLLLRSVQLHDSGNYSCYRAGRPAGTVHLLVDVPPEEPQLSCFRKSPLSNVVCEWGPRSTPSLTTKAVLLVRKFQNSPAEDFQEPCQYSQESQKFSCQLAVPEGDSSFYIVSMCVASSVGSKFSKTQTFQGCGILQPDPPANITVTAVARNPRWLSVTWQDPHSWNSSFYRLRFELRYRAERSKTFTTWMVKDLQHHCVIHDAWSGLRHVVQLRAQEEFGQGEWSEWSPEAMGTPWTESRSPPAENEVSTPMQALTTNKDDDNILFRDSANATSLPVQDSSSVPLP

Kd: 0.44 nM
Substance: interleukin-6 (from UniProt P05231)
